Reference: patent US20100022624

Biological target: α-tubulin (human, endogenous)

B1: HDAC6 (human, endogenous) (protein)
chain: MTSTGQDSTTTRQRRSRQNPQSPPQDSSVTSKRNIKKGAVPRSIPNLAEVKKKGKMKKLGQAMEEDLIVGLQGMDLNLEAEALAGTGLVLDEQLNEFHCLWDDSFPEGPERLHAIKEQLIQEGLLDRCVSFQARFAEKEELMLVHSLEYIDLMETTQYMNEGELRVLADTYDSVYLHPNSYSCACLASGSVLRLVDAVLGAEIRNGMAIIRPPGHHAQHSLMDGYCMFNHVAVAARYAQQKHRIRRVLIVDWDVHHGQGTQFTFDQDPSVLYFSIHRYEQGRFWPHLKASNWSTTGFGQGQGYTINVPWNQVGMRDADYIAAFLHVLLPVALEFQPQLVLVAAGFDALQGDPKGEMAATPAGFAQLTHLLMGLAGGKLILSLEGGYNLRALAEGVSASLHTLLGDPCPMLESPGAPCRSAQASVSCALEALEPFWEVLVRSTETVERDNMEEDNVEESEEEGPWEPPVLPILTWPVLQSRTGLVYDQNMMNHCNLWDSHHPEVPQRILRIMCRLEELGLAGRCLTLTPRPATEAELLTCHSAEYVGHLRATEKMKTRELHRESSNFDSIYICPSTFACAQLATGAACRLVEAVLSGEVLNGAAVVRPPGHHAEQDAACGFCFFNSVAVAARHAQTISGHALRILIVDWDVHHGNGTQHMFEDDPSVLYVSLHRYDHGTFFPMGDEGASSQIGRAAGTGFTVNVAWNGPRMGDADYLAAWHRLVLPIAYEFNPELVLVSAGFDAARGDPLGGCQVSPEGYAHLTHLLMGLASGRIILILEGGYNLTSISESMAACTRSLLGDPPPLLTLPRPPLSGALASITETIQVHRRYWRSLRVMKVEDREGPSSSKLVTKKAPQPAKPRLAERMTTREKKVLEAGMGKVTSASFGEESTPGQTNSETAVVALTQDQPSEAATGGATLAQTISEAAIGGAMLGQTTSEEAVGGATPDQTTSEETVGGAILDQTTSEDAVGGATLGQTTSEEAVGGATLAQTTSEAAMEGATLDQTTSEEAPGGTELIQTPLASSTDHQTPPTSPVQGTTPQISPSTLIGSLRTLELGSESQGASESQAPGEENLLGEAAGGQDMADSMLMQGSRGLTDQAIFYAVTPLPWCPHLVAVCPIPAAGLDVTQPCGDCGTIQENWVCLSCYQVYCGRYINGHMLQHHGNSGHPLVLSYIDLSAWCYYCQAYVHHQALLDVKNIAHQNKFGEDMPHPH
amount of acetylated α-tubulin (immunoblot) after HDAC6 siRNA: only HSMCs transfected with siRNAs specific for HDAC6 displayed increased levels of acetylated α-tubulin
